No end group written: not given here.
Key:
[1] = molecular target: T1, recombinant human FAP (Homo sapiens, UniProt Q12884); assay: FRET-quench assay: probe cleavage by recombinant human FAP; format: biochemical; details: 1 nM enzyme
T1 construct: (residues L26-D760 and L26-D761, respectively); octa-His (N); made in house; host or cells: transiently transfected CHO cells (conditioned media)
T1 sequence (Q12884 26-760): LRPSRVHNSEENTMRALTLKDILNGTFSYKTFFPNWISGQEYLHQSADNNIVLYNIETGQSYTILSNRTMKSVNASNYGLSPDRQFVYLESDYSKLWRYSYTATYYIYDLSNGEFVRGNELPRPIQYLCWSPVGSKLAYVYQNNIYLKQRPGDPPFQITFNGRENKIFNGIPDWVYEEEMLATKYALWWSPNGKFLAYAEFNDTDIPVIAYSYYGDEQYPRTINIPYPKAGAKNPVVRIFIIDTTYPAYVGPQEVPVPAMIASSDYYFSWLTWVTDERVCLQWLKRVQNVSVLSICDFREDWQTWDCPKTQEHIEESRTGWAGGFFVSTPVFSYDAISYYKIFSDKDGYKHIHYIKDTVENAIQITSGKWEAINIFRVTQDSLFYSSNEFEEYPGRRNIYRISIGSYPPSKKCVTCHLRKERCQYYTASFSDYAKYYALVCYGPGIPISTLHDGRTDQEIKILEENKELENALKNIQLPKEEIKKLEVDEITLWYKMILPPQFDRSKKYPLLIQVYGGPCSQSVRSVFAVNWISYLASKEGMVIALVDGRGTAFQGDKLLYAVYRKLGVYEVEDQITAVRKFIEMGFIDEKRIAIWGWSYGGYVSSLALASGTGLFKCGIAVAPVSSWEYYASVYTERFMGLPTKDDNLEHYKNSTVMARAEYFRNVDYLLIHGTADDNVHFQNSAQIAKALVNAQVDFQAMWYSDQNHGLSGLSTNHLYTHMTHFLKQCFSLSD
From the text: (§1) Human prolyl oligopeptidase (PREP, 4308-SE), DPPIV (1180-SE), DPP9 (5419-SE), and DPPII/DPP7 (3438-SE) proteins were purchased from R&D Systems. Human DPP8 (BML-SE527) protein was purchased from Enzo Life Sciences. N-terminal octa-His-tagged human and mouse FAP proteins containing the extracellular domain (residues L26-D760 and L26-D761, respectively) were purified from the conditioned media of transiently-transfected CHO cells, by immobilized metal affinity chromatography (IMAC), followed by size exclusion chromatography (SEC).
(§2) Peptides of the region flanking the C-terminal human FGF21 cleavage site (VGPSQG) or a variant with D-alanine at P2 (VaPSQG) were synthesized (Anaspec, Inc.), containing an amine-terminal donor (HyLite Fluor 488 or Cy5.5 for aP NIRF) and a dark quencher-acceptor (QXL 520 or QSY21 for aP NIRF) conjugated to a supplementary C-terminal lysine. ANPFAP (Bioconjugate Chem 23:1704-11) and aP NIRF were synthesized by CPC Scientific (Sunnyvale, Calif.). Assays were conducted at 37° C. in 50 mM HEPES (pH 7.2), 150 mM NaCl, 1 mM EDTA, 0.1 mg/ml BSA. The excitation/emission wavelengths of cleaved peptide are 490/520 nm or 675/695 nm for ANPFAP and aP NIRF. Fluorescence was monitored on a Tecan M1000 Pro plate reader in kinetic mode. Except where indicated otherwise, measurements of serum or plasma FAP activity were performed with the peptide substrate concentration at 6 μM and a 10-fold dilution of serum or plasma in assay buffer.

[2] = molecular target: T2, recombinant human PREP (Homo sapiens, UniProt P48147); assay: FRET-quench assay: probe cleavage by recombinant human PREP; format: biochemical; details: 1 nM enzyme
T2 construct: purchased R&D Systems 4308-SE
T2 sequence (P48147 1-710): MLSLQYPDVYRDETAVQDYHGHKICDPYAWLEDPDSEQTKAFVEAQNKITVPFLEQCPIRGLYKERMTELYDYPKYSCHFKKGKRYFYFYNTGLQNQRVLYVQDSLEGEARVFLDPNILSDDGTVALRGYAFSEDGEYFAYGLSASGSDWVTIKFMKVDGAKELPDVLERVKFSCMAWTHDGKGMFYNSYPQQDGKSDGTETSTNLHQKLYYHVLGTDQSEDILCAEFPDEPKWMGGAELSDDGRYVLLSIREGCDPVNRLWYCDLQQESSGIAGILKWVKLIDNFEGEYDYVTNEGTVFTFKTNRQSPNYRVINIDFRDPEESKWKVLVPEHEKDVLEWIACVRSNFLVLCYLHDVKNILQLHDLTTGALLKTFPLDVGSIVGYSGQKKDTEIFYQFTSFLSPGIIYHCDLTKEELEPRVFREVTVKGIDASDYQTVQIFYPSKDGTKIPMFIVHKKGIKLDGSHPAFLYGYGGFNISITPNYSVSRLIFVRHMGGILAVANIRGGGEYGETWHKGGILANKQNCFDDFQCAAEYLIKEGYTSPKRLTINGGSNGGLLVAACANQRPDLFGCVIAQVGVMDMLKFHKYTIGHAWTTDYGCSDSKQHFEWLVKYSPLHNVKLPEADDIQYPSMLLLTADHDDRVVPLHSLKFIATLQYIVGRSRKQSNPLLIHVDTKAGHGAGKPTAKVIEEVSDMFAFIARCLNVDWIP
From the text: as §1, §2

Substance | cleavage by recombinant human FAP [1] | cleavage by recombinant human PREP [2]
GP probe: human FGF21 cleavage-site peptide VGPSQG with amine-terminal HyLite Fluor 488 donor and QXL 520 quencher on supplementary C-terminal lysine ({HyLite Fluor 488}-VGPSQGK(QXL 520)) | readily cleaved | readily cleaved
aP probe: FGF21-based peptide VaPSQG (D-alanine at P2) with HyLite Fluor 488 donor and QXL 520 quencher | clearly detectable | unable to digest

Reference: patent US20200055896A1, “SUBSTRATES RECOGNIZED BY FIBROBLAST ACTIVATION PROTEIN (FAP) AND METHODS OF USING THE SAME” (GENENTECH, INC., priority 2017, published 2020)
